Measurements taken from PMC2423479.

Target: Pgc ORF1, (His)6-tagged, 71-residue oligopeptide encoded by Drosophila polar granule component (pgc) ORF1 (Drosophila melanogaster)
Test: SEC; refolded (His)6-tagged Pgc ORF1 on a size-exclusion column; two species migrating at 18 kDa and 36 kDa; dimer to monomers; column and buffer not stated

Pgc ORF1, (His)6-tagged, 71-residue oligopeptide encoded by Drosophila polar granule component (pgc) ORF1 (natural protein)
stoichiometry N: 2
